Source: the supplement of paper PMC10567573

B1: VAMP4 (parent)
chain: FLRGPSGPRFGPRNDKIKHVQNQV
B2: MCOLN1 (parent)
chain: EEEDLRRRLKYFFMSPCDKFRAKG

Variants of: B1
Test: protein stability index of a GFP-peptide fusion (GPS, HEK-293T) (PSI 1-6); higher = more stable
Details: c terminus: a fixed tail appended
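Further: lentivirally expressed fusions sorted by FACS into six bins by GFP to DsRed ratio, PSI derived from sequencing read proportions per bin multiplied by bin number.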

| Variant | protein stability index |
| --- | --- |
| S6C | 2.03 |
| S6I | 1.97 |
| S6T | 2.77 |
| P12Y | 2.75 |
| P12I | 2.87 |
| P12W | 1.88 |
| I17L | 2.78 |
| I17N | 3.54 |
| H19W | 1.57 |
| H19E | 2.7 |
| H19R | 2.03 |
| H19L | 2.72 |
| K18A | 3.24 |
| K18L | 1.93 |
| R9I | 2.17 |
| R9Y | 2.04 |
| P5S | 2.96 |
| Q23A | 2.81 |
| Q23L | 2.81 |
| Q23W | 1.84 |
| Q23V | 2.6 |

| Variant | protein stability index |
| --- | --- |
| N22H | 2.18 |
| N22M | 1.57 |
| N22T | 3.02 |
| Q21G | 2.55 |
| Q21D | 2.93 |
| P8R | 2.35 |
| P8T | 2.71 |
| P8N | 2.63 |
| F10M | 3.24 |
| F10Y | 2.27 |
| F10R | 3.15 |
| F10C | 2.53 |
| F10V | 2.67 |
| F10W | 2.09 |
| G7P | 3.24 |
| G7H | 2.86 |
| G7V | 2.44 |
| G7S | 2.77 |
| R13L | 2.02 |
| R13C | 2.33 |
| R13M | 2.89 |

| Variant | protein stability index |
| --- | --- |
| R13Y | 2.31 |
| R3I | 2.24 |
| R3C | 2.77 |
| R3E | 3.56 |
| R3K | 3.04 |
| D15E | 3 |
| N14P | 3.04 |
| N14F | 2.29 |
| G4E | 3.17 |
| G4N | 3.08 |
| G4M | 2.57 |
| G4A | 3.07 |
| G4P | 3.12 |
| L2M | 2.99 |
| L2R | 3.43 |
| L2S | 3.37 |
| L2P | 3.18 |
| K16H | 2.48 |
| K16I | 2.15 |
| K16E | 3.18 |
| V20K | 3.23 |

| Variant | protein stability index |
| --- | --- |
| V20E | 3.91 |
| V20Q | 2.24 |
| V20A | 2.63 |
| V20W | 2.25 |
| V20I | 2.69 |
| F1K | 3.35 |
| F1G | 3.65 |
| F1E | 3.6 |
| F1W | 2.61 |
| G11V | 1.97 |
| G11R | 2.34 |
| G11K | 2.57 |
| G11M | 2.52 |
| V24I | 2.6 |
| V24S | 2.9 |
| V24C | 2.22 |
| V24T | 3.08 |
| V24H | 3.18 |
| V24F | 2.53 |

Variants of: B2
Test: as above
Details: c terminus: a fixed tail appended

| Variant | protein stability index |
| --- | --- |
| R7C | 2.38 |
| R7N | 2.55 |
| R7A | 2.35 |
| R7Y | 2.65 |
| A22N | 2.21 |
| A22F | 2.29 |
| E3L | 1.37 |
| E3W | 1.14 |
| E3G | 2.12 |
| K19I | 1.74 |
| K19V | 2.51 |
| K19T | 3.01 |
| K19Q | 2.73 |
| K19Y | 2.75 |
| C17Q | 3.58 |
| C17W | 2.13 |
| C17N | 2.89 |
| F20Q | 3.23 |
| F20M | 2.77 |
| F20I | 2.14 |
| F20Y | 2.28 |
| F20N | 3.62 |

| Variant | protein stability index |
| --- | --- |
| R6F | 1.59 |
| R6C | 2.85 |
| R6K | 1.9 |
| R6D | 3.28 |
| K10I | 1.62 |
| K10N | 3.21 |
| K10Q | 2.26 |
| G24A | 2.43 |
| G24C | 1.82 |
| G24Y | 1.78 |
| G24L | 2.55 |
| M14N | 3.3 |
| M14H | 2.59 |
| M14A | 3.27 |
| K23C | 2.43 |
| K23I | 2.01 |
| K23N | 2.56 |
| K23R | 2.65 |
| L5M | 2.32 |
| F13V | 3.45 |
| F13P | 3.97 |
| F13Q | 3.65 |

| Variant | protein stability index |
| --- | --- |
| P16Q | 1.84 |
| P16L | 1.7 |
| P16C | 1.84 |
| P16K | 2.61 |
| P16D | 3.12 |
| P16S | 2.81 |
| Y11E | 3.73 |
| Y11F | 2.88 |
| Y11C | 2.77 |
| Y11G | 3.2 |
| Y11H | 2.46 |
| Y11D | 2.87 |
| Y11S | 2.88 |
| D4Y | 2.18 |
| D4A | 1.13 |
| L9S | 3.91 |
| L9C | 3.03 |
| L9Y | 2.97 |
| L9R | 3.35 |
| L9V | 3.15 |
| E1Q | 1.62 |
| E1I | 2.19 |

| Variant | protein stability index |
| --- | --- |
| S15V | 2 |
| S15H | 2.79 |
| R21V | 2.56 |
| R21E | 3.45 |
| R21A | 2.52 |
| R21Q | 3.04 |
| R21K | 2.93 |
| F12C | 3.27 |
| F12V | 2.65 |
| F12M | 2.91 |
| E2H | 2.72 |
| E2A | 2.37 |
| E2R | 3.07 |
| E2N | 1.96 |
| R8Q | 3 |
| R8C | 1.86 |
| D18W | 2.25 |
| D18L | 2.32 |
| D18Y | 2.67 |
